# Measured values published in patent US11028167 (CENTIVAX, dated 2021).
# B1: COVID19_P06_F05 (scFv, V domains shown)
# VH: QVQLVQSGAEVKKPGASVKVSCKASGYTFASYDVNWVRQAPGQGLEWMGIINPRSGDANYAQKFQGRVTMTRDTSTSTVYMELSSLRSEDTAVYYCTRERHPQLLMPLDYWGQGTLVTVSS
# VL: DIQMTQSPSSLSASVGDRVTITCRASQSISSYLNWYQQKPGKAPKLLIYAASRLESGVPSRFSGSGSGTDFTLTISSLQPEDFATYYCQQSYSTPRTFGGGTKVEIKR
# B2: COVID19_P06_G11 (scFv, V domains shown)
# VH: QVQLVQSGAEVKKPGASVKVSCKASGNTFTGYYMHWVRQAPGQGLEWMGAIYPGGSDTSYNQKFQGRVTMTRDTSTSTVYMELSSLRSEDTAVYYCTREGIPQLAWTLDYWGQGTLVTVSS
# VL: DIQMTQSPSSLSASVGDRVTITCRASQSMSSYLNWYQQKPGKAPKLLIYAASSLQSGVPSRFSGSGSGTEFTLTISSLQPEDIATYYCQQFGSFGGGTKVEIKR
# B3: COVID19_P06_G10 (scFv, V domains shown)
# VH: QVQLVQSGAEVKKPGASVKVSCKASGYDFINYYIHWVRQAPGQGLEWMGIIDPSGGSTSYAQKFQGRVTMTRDTSTSTVYMELSSLRSEDTAVYYCTREGIPQLLRTLDYWGQGTLVTVSS
# VL: DIQMTQSPSSLSASVGDRVTITCRASQDISDSLAWYQQKPGKAPKLLIYAASSLQSGVPSRFSGSGSGTDFTLTISSLQPEDFATYYCQQSYSRLAWTFGGGTKVEIKR
# B4: COVID19_R02_F04 (scFv, V domains shown)
# VH: QVQLVQSGAEVKKPGASVKVSCKASGYRFTSYEVNWVRQAPGQGLEWMGIINPSGGSTSYAQKFQGRVTMTRDTSTSTVYMELSSLRSEDTAVYYCTREGIPQLLWALDYWGQGTLVTVSS
# VL: not shown
# B5: COVID19_R02_A12 (scFv, V domains shown)
# VH: QVQLVQSGAEVKKPGASVKVSCKASGYTFTENEMHWVRQAPGQGLEWMGIINTSGGYTNYAQKFQGRVTMTRDTSTSTVYMELSSLRSEDTAVYYCTREGIPQLLRTLDYWGQGTLVTVSS
# VL: DIQMTQSPSSLSASVGDRVTITCRASQSISSWLAWYQQKPGKAPKLLIYAASSLQSGVPSRFSGSGSGTDFTLTISSLQPEDFATYYCQQSYSNPYTFGGGTKVEIKR
# B6: COVID19_R02_D11 (scFv, V domains shown)
# VH: QVQLVQSGAEVKKPGASVKVSCKASGYTFTENEMHWVRQAPGQGLEWMGIINPSAGSTSYAQKFQGRVTMTRDTSTSTVYMELSSLRSEDTAVYYCTREGIPQLLRTLDYWGQGTLVTVSS
# VL: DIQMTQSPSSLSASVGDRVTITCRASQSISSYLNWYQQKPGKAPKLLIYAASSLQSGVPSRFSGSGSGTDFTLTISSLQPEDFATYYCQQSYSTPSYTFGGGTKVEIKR
# B7: COVID19_R02_B06 (scFv, V domains shown)
# VH: QVQLVQSGAEVKKPGASVKVSCKASGYTFTENEMHWVRQAPGQGLEWMGVINPSGGYTSYAQKFQGRVTMTRDTSTSTVYMELSSLRSEDTAVYYCTREGIPQLLRHLDYWGQGTLVTVSS
# VL: DIQMTQSPSSLSASVGDRVTITCRASQSISGYLSWYQQKPGKAPKLLIYAASSLQSGVPSRFSGSGSWTDFTLTISSLQPEDFATYYCQQSYSTPLTFGGGTKVEIKR
# B8: COVID19_R02_A05 (scFv, V domains shown)
# VH: QVQLVQSGAEVKKPGASVKVSCKASGYTFTENEMHWVRQAPGQGLEWMGMINPSGGYTNYAQEFQGRVTMTRDTSTSTVYMELSSLRSEDTAVYYCTREGIPQLLRTLDYWGQGTLVTVSS
# VL: DIQMTQSPSSLSASVGDRVTITCRASQSIYRWLAWYQQKPGKAPKLLIYAASSLQSGVPSRFSGSGSGTEFTLTISSLQPEDFATYYCQQSYGNPYTFGGGTKVEIKR
# B9: COVID19_P06_C02 (scFv, V domains shown)
# VH: QVQLVQSGAEVKKPGASVKVSCKASGYTFTENEMHWVRQAPGQGLEWMGIINPSGGSTSYAQKFQGRVTMTRDTSTSTVYMELSSLRSEDTAVYYCTREGIPWWLRTLDYWGQGTLVTVSS
# VL: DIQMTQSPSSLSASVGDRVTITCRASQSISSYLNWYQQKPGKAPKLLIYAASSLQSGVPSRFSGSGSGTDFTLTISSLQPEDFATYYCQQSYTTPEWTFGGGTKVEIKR
# notes: also called COVID19_P06_CO2
# B10: COVID19_R02_C11 (scFv, V domains shown)
# VH: QVQLVQSGAEVKKPGASVKVSCKASGYTFSDYYMHWVRQAPGQGLEWMGIIDPSGGSASYAQKFQGRVTMTRDTSTSTVYMELSSLRSEDTAVYYCTREGIPQLLRTLDYWGQGTLVTVSS
# VL: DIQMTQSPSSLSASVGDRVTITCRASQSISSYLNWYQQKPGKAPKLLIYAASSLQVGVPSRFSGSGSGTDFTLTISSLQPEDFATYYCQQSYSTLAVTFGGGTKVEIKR
# B11: COVID19_R02_D03 (scFv, V domains shown)
# VH: QVQLVQSGAEVKKPGASVKVSCKASGYTFTEYEMHWVRQAPGQGLEWMGIINPSGGYTNYAQKFQGRVTMTRDTSTSTVYMELSSLRSEDTAVYYCTREGIPQVLRTLDYWGQGTLVTVSS
# VL: DIQMTQSPSSLSASVGDRVTITCRASQSISSWLAWYQQKPGKAPKLLIYAASSLQSGVPSRFSGSGSGTDFTLTISSLQPEDFATYYCQQSYSNPYTFGGGTKVEIKR
# B12: COVID19_R02_F07 (scFv, V domains shown)
# VH: QVQLVQSGAEVKKPGASVKVSCKASGYTFTENEMHWVRQAPGQGLEWMGIINTSGGYTNYAQKFQGRVTMTRDTSTSTVYMELSSLRSEDTAVYYCTREGIPQLLRTLDYWGQGTLVTVSS
# VL: DIQMTQSPSSLSASVGDRVTITCRASQSISSWLAWYQQKPGKAPKLLIYAASSLQSGVPSRFSGSGSGTDFTLTISSLQPEDFATYYCQQSYSNPLHFGGGTKVEIKR
# B13: COVID19_R02_D07 (scFv, V domains shown)
# VH: QVQLVQSGAEVKKPGASVKVSCKASGYTFTENEMHWVRQAPGQGLEWMGIINPSGGSTSYAQKFQGRVTMTRDTSTSTVYMELSSLRSEDTAVYYCTREGPPQLLRTLDYWGQGTLVTVSS
# VL: DIQMTQSPSSLSASVGDRVTITCRASQSISSYLNWYQQKPGKAPKLLIYHTSNLETGVPSRFSGSGSGTDFTLTISSLQPEDFATYYCQQSYSFPATTFGGGTKVEIKR
# B14: COVID19_R02_E11 (scFv, V domains shown)
# VH: QVQLVQSGAEVKKPGASVKVSCKASGYTFTENEMHWVRQAPGQGLEWMGIINPSGGSTSYAQKFQGRVTMTRDTSTSTVYMELSSLRSEDTAVYYCTREGIPQLLRTLDYWGQGTLVTVSS
# VL: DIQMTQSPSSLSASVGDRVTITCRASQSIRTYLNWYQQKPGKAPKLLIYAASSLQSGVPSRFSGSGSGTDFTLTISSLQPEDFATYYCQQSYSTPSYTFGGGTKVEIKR
# notes: also called COVID19_C R02_E11
# B15: COVID19_R02_A04 (scFv, V domains shown)
# VH: QVQLVQSGAEVKKPGASVKVSCKASGYTFTENEMHWVRQAPGQGLEWMGIINPDGGSTSYAQKFQGRVTMTRDTSTSTVYMELSSLRSEDTAVYYCTREGIPQLLRTLDYWGQGTLVTVSS
# VL: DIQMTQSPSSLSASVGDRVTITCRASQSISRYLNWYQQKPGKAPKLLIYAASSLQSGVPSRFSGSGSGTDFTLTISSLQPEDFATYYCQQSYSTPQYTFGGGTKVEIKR
# B16: COVID19_R02_F06 (scFv, V domains shown)
# VH: QVQLVQSGAEVKKPGASVKVSCKASGYTFTENEMHWVRQAPGQGLEWMGIINPNGGGTYYAQKFQGRVTMTRDTSTSTVYMELSSLRSEDTAVYYCTREGIPQLLRTLDYWGQGTLVTVSS
# VL: DIQMTQSPSSLSASVGDRVTITCRASQGIRNDLGWYQQKPGKAPKLLIYAASSLQSGVPSRFSGSGSGTDFTLTISSLQPEDFATYYCQQTYSAPYTFGGGTKVEIKR
# B17: COVID19_P06_G03 (scFv, V domains shown)
# VH: QVQLVQSGAEVKKPGASVKVSCKASGYTFTENEMHWVRQAPGQGLEWMGVVNPSGGYTSYAQKFQGRVTMTRDTSTSTVYMELSSLRSEDTAVYYCTREGIPQLLRSQDYWGQGTLVTVSS
# VL: not shown
# B18: COVID19_R02_F08 (scFv, V domains shown)
# VH: QVQLVQSGAEVKKPGASVKVSCKASGYTFGNYAINWVRQAPGQGLEWMGAIYPGNSDTTYNQKFQGRVTMTRDTSTSTVYMELSSLRSEDTAVYYCARDTVMGGMDVWGQGTLVTVSS
# VL: DIQMTQSPSSLSASVGDRVTITCRASQEISGYLSWYQQKPGKAPKLLIYAASSLQSGVPSRFSGSGSGTDFTLTISSLQPEDFATYYCQQYVSYPWTFGGGTKVEIKR
# B19: COVID19_P06_G02 (scFv, V domains shown)
# VH: QVQLVQSGAEVKKPGASVKVSCKASGYTFTSHDINWVRQAPGQGLEWMGMINPSGGYTSYAQNFQGRVTMTRDTSTSTVYMELSSLRSEDTAVYYCTREGIPALLRTLDYWGQGTLVTVSS
# VL: DIQMTQSPSSLSASVGDRVTITCRASQGIRNDLGWYQQKPGKAPKLLIYAASSLQSGVPSRFSGSGSGTDFTLTISSLQPEDFATYYCQQTYTTPYTFGGGTKVEIKR
# Tests used:
# Experiment in all cases: SPR, scFv captured by anti-V5, RBD analyte
# [1] = target: SARS-CoV-2 Receptor Binding Domain (RBD) protein (SARS-CoV-2, UniProt P0DTC2 319-541)
# [2] = target: MERS Receptor Binding Domain (RBD) protein (Middle East Respiratory Syndrome (MERS) …, UniProt K9N5Q8 367-606)
# [3] = target: SARS-CoV-1 Receptor Binding Domain (RBD) protein (SARS-CoV-1, UniProt P59594 306-527)
Binder,Kd [1],koff [1],kon [1],binding result [2],binding result [3]
B1,0.9 nM,5.7e-05 s⁻¹,61900 M⁻¹ s⁻¹,no binding (tested: 300 nM),no binding (tested: 300 nM)
B2,21.5 nM,0.0014 s⁻¹,65000 M⁻¹ s⁻¹,no binding (tested: 300 nM),no binding (tested: 300 nM)
B3,2.06 nM,0.00068 s⁻¹,330000 M⁻¹ s⁻¹,no binding (tested: 300 nM),no binding (tested: 300 nM)
B4,6.4 nM,0.00036 s⁻¹,56000 M⁻¹ s⁻¹,,
B5,46.3 nM,0.0102 s⁻¹,219000 M⁻¹ s⁻¹,no binding (tested: 300 nM),no binding (tested: 300 nM)
B6,4.9 nM,0.00069 s⁻¹,140000 M⁻¹ s⁻¹,no binding (tested: 300 nM),no binding (tested: 300 nM)
B7,,,,no binding (tested: 300 nM),no binding (tested: 300 nM)
B8,,,,no binding (tested: 300 nM),no binding (tested: 300 nM)
B9,6.15 nM,0.000438 s⁻¹,71200 M⁻¹ s⁻¹,no binding (tested: 300 nM),no binding (tested: 300 nM)
B10,12.8 nM,0.0011 s⁻¹,86000 M⁻¹ s⁻¹,no binding (tested: 300 nM),no binding (tested: 300 nM)
B11,,,,no binding (tested: 300 nM),no binding (tested: 300 nM)
B12,,,,no binding (tested: 300 nM),no binding (tested: 300 nM)
B13,6.3 nM,0.00043 s⁻¹,68000 M⁻¹ s⁻¹,no binding (tested: 300 nM),no binding (tested: 300 nM)
B14,7.9 nM,0.00079 s⁻¹,100000 M⁻¹ s⁻¹,no binding (tested: 300 nM),no binding (tested: 300 nM)
B15,12.7 nM,0.00069 s⁻¹,54400 M⁻¹ s⁻¹,no binding (tested: 300 nM),no binding (tested: 300 nM)
B16,,,,no binding (tested: 300 nM),no binding (tested: 300 nM)
B17,,,,no binding (tested: 300 nM),no binding (tested: 300 nM)
B18,9.1 nM,0.00071 s⁻¹,78000 M⁻¹ s⁻¹,no binding (tested: 300 nM),no binding (tested: 300 nM)
B19,6.92 nM,0.0009 s⁻¹,130000 M⁻¹ s⁻¹,no binding (tested: 300 nM),no binding (tested: 300 nM)
